Experimental data: a protein production outcome set (Wang et al. 2014)

Test: label from the status in PepcDB records

MKLIVVTTPTFFVEEDKIITALFEEGLDILHLRKPETPAMYSERLLTLIPEKYHRRIVTHEHFYLKEEFNLMGIHLNARNPSEPHDYAGHVSCSCHSVEEVKNRKHFYDYVFMSPIYDSISKVNYYSTYTAEELREAQKAKIIDSKVMALGGINEDNLLEIKDFGFGGAVVLGDLWNKFDACLDQNYLAVIEHFKKLKKLADLEHHHHHH
protein production: not failed

MLYLKRILIVGLSFVVGLINIIGNNYTVFALEKNTLVHQNVMSMIQSQRGGLFDPIYTESLEDNWQGDYIYYGEDTDGSALKWQLLDSDNKDFSKNANSTMFLFSDKTIGTSFWYRENDYGFDYSNVKPGETPIYWQKGYEWDKSDLKTNMEDEMKNKFSSIENEGIIFSSKSSEDAQNVAVGLEKLGTTEMTASKWFPLSIQELTNKCYGFSSVPFNRNQAPLGLHTGDKSRVSSDDKNYLIRSYEEHWTKPMENGMRYHPVFVLNSNSVYGANCAGGLNYGNMYTVQSMRPAMNIDTSKVMLVKSHNQKEIIGIKAVNDSKTNEFKLTLLDDKQKLNIENIKTERDKITFDFEAIGNGKYLSVVVQDENNNVMYYGNIKDNLDKVNVGTMTIDLNQIGLNSKSFSSGEYKLSIFTEQLNFDKKTDYSSKFVDVEVVQNNVPPAVINKVPTIVAEDKVLTVGDTFDPLKDVTAYDNEDGIIKLTEANIAANDVNTNKEGTYNVTYKVTDKQGASSTKTITIDVIERIVIPENKPVDKTNNDTNSSNSSKVPQTGDINNIGVLAVTLMMSGSIVIGCNRKKSKANSLSEK
protein production: failed

MKRFIVGIDLGTSNTVVAYVEAGGDAIRVFDVDQLVAPGEVGARPLLPSARYHPAPGEFAPGELQLPWRDAEAGDAADAGDAPPAVIGTLARTLGAQVPGRLVTSAKSWLSHASVDRLAPILPWGAADAGGKVSPVAASASYLAHVRAAWNRRFPDAPLEQQDVVLTVPASFDDGARSLTLEAARLAKLPALRLLEEPQAAFYDWLFHHRDSLREELARTRLVLVCDVGGGTTDLTLIKVHAEDGEPQLTRIGVGDHLMLGGDNMDLALARVAEARLARDGGARLSAASLSQLVERCRAAKERLLDANPPDSVGVTLLGAGARLVGGARKTELGRAEVEQIVVDGFFPAGGPDDLPRRSRAALVEFGLPYAADAAVTRHVAAFLHRLAAQSRDALGAAGASDRALPVPDTLLLNGGVFRSRALAERVAGVLGDWRGQPLHVLRNDHPDVAVARGAVAYGLARAGRAPRIGGGSPRSYFLVVDDGAHASRGVCVLPRGTAEGHDVRLDDRVFALRLGHPVRFHLASTVADHAWRAGELADLGAGGFVRLPPVATVVRRQDAGGASERLVKLTTSLTEVGTLDMRCIATDDSSQRWQLEFQLRREPAGGGDAADASRHPSLDEAIELIDRSFGARLANVDPKEVRRLRGQLEQLLGARDAWDIALLRELFGALWARAGRRRRSADHERVWLNLAGYCVRPGFGHPLDDWRVAQLWTLFDDGIQYVNDAQVWSEWWTLWRRAAGGLDDDAQREALDAMAWLQEAARAKRPKLPFDAAKIGDMDIVRLSASLERVPVERKIALGEDLLARLRRPAENHQCWWAIGRIGARRPLYGSAHGVVPPDVAGRWLDAILAVDWKKVEPAAFAAAQIARMTGDRSSDVAADVRERVVRRLAAMNASDAWVRMVSEVVALDSADTGRAFGESLPAGLKLVAD
protein production: failed

MGTDKFNNIKIDKYENLINVLKTGDIFLCSGNYLVSKLIKKVSESMFSHTGIIVKWGEHTLIMESVEDDGVRIVPLEHYIKNYENSNNRYNGSLFIARHELLQNVNDDSEMIRNLIKVGFSLLNSGYDKNEIAQIVARIGLGIGRHEDNNEYICSEFVNECFKKIGVEFLTDSEGFIFPEHIAADHHVLPIAQIE
protein production: not failed

NQTRLNKLQKTLVDKQIDFAFISDYKTIQYITGFGSNPYERILAMIVFADKDPFIFAPALEVEVVKSVGWPYDLYGYQDNEDGLEMIYDHIKERSANPKKIATEQGNLTLSRFNRLQAAFPDADYSFNLTPVIEHQR
protein production: not failed

MPGFNYGGDQDEVYTPYRRVLVTGATGLLGRAVYKEFKNNDWDALGCGYNRARPFFLKCNLLDEDAVRGVIQSFQPHVIVHCAAERRPDVVERHTEAAMNLNVHACATLAKEAGGSFLIYISTDYVFDGRNPPYGENDAPNPLNLYGKSKLEGEREILRHCPGAAVLRVPILFGEVEKVEESAVTVLFERVQEGAESCTIDHCQQRFPTYTNDVARVCRNMAERALQDQSLRGIFHYSAKEQMTKYEMTCAIADAFNLPSSHLIPMTEQPAGAGAQRPQNAQLECSRLELLGLSVESTPFKNAIRDSLWPFQHDKRWRQTVFH
protein production: not failed

MSSLGSRSSTSIQPVILCGGSGTRLWPLSRQSYPKQFMPLLGGRSLLALTLERVSGLSSHPWCVASTEHRFLVIDAFEQCQLNGQVLLEPSARNTAAAIAVAALHAEDDALLLFCPADHYIPDAPAFVERVRQAQVAALDGALVTFGVFPTYPSSAYGYIEASAPWQDSGALHVQRFIEKPSATQAAELLLKGNMYWNAGIFLGLAREWRRALELHAPDILAACRDALREAESPVISRSGQTTVQSVVLHEPSFDACRSQSIDYAVMEHHRPICAVPFNGAWSDVGSWNAVADLSSADDKGNSSQGDAHLFDCQRTYVHAAGRRPVVALGLEDVCIVDTDDAVLVMPMSRAEDIKSVVGQLTDRSVAQALLHRRVARPWGWYDSLDQGERFQVKRIGVKPGASLSLQLHHHRAEHWTVVKGTAEITCGDRVFLLSENQSTYIPLGQRHRLHNPGKVELEIIEVQSGSYLAEDDIVRLEDNYGRTAPHCPGPAEADSTLIEQ
protein production: failed

MVKDTLFSTPIAKLGDFIFDENVAEVFPDMIQRSVPGYSNIITAIGMLAERFVTADSNVYDLGCSRGAATLSARRNINQPNVKIIGIDNSQPMVERCRQHIAAYHSEIPVEILCNDIRHVEIKNASMVILNFTLQFLPPEDRIALLTKIYEGLNPNGVLVLSEKFRFEDTKINHLLIDLHHQFKRANGYSELEVSQKRTALENVMRTDSIETHKVRLKNVGFSQVELWFQCFNFGSMIAVK
protein production: not failed

MTPRHQRDLSRRKLLAALAGTAVAVPAAAMGAPHALATVASDNGGAAPRAAGALPLTIVNRTGSFANSSVHLYIVGNEDGKQVRVTSEGTLAPISLADNGADGFTDYAIALSGSGETRLSLPYMSGRIYVALGDKLKLKAVADGNGNAALQYPAGWVESDPNYRVLHDCAEFTHNSAGMFCNTTMVDMFSVPLSIRLTGTKDQTTGTLRDGGRARVFAAVKSVPEFERLVVDDLRVIAPGHGLDAGIFAEDYFAPYIDEVWSTYTGKDLTVTTNAGAFTGRVRGDKLTFTGPASVSFSKPSTRDVFFCDGSLAAPNDGTTGPVAAVLGAGFNRSTLVNDSAQPTTDPAAFYGSALANHYAKAIHAATEDGKAYGFAFDDVADFASYIQDTAPTGINLTLTPF
protein production: failed

SGEKSENCGVPEDLLNGLKVTDTQEAECAGPPVPDPKNQHSQSKLLRDDEAHLQEDQGEEECFHDCSASFEEEPGADKVENKSNEDVNSSELDEEYLIELKKNMSDEEKQKRREESTRLKEEGNEQFKKGDYIEAESSYSRALEMCPSCFQKERSILFSNRAAARMKQDKKEMAINDCSKAIQLNPSYIRAILRRAELYEKTDKLDEALEDYKSILEKDPSIHQAREACMRLPKQIEERNERLKEEMLGKLKDLGNLVLRPFGLSTENFQIKQDSSTGSYSINFVQNPNNNR
protein production: not failed

SLSLRPSPRLLCTATKQKNSGQNLEEDMGQSEQKADPPATEKTLLEEKVKLEEQLKETVEKYKRALADTENLRQRSQKLVEEAKLYGIQAFCKDLLEVADVLEKATQCVPKEEIKDDNPHLKNLYEGLVMTEVQIQKVFTKHGLLKLNPVGAKFDPYEHEALFHTPVEGKEPGTVALVSKVGYKLHGRTLRPALVGVVKEA
protein production: not failed

MGVTLEGQRKESIWVLMRRQRARRALVKKIMIRPRKSVEASRRPCRAIHRRVKTLKELVPNTKTSEGLDGLFRQTADYILALEMKVKVMQTMVQVLTETNCV
protein production: failed

MEKCDFYHIIVLSLNFPGYLKMEYGSTKMEERLSRSPGGKLALWAFYTWCGYFVWAMARYIWVMSRIPDAPVSGFESDLGSTAGKWLGALVGFLFMALVGALLGSIAWYTRPRPARSRRYE
protein production: failed

EVNAAMNDGVICDMFEGHTPFKPRYVLPDYARYLQQGSEYLELSPAQDLDEALNALTILYHHVPSVTNIPVYLGQLDDILMPFVEGMDADALYRKLKLFWIMLDRTLPDAFMHVNLGPTDNIVCRTLLRIDAELKQVAPNLTFMYDPAVTPDELLQIATTNICQCSKPHIANYPQHASAFDACGFGIVSCYNALPLAGGANTLVRLNLKEVALKATSINDFFERVLPYYCSLTFELIEARSAFLHQESHFFDSFLVKEQLIDESRFAPMFGIYGMAEAVNILQAQMTSETDKSSQSNKPTGYGHSMDANQLGYRISAALDTIVKSTPVTYGYHGRALLHSQGGISLDKGVTPGVRIPYGTEPNPIAHIQALAQHHQYYTAGISDILTIDETVKSNPQAMFQLCKAALELGFREFTANVASNDLMRVTGYMVKRSDIEAFKQ
protein production: failed

DETIHLERGENLFEIHINKVTFSSEVLQASGDKEPVTFCTYAFYDFELQTTPVVRGLHPEYNFTSQYLVHVNDLFLQYIQKNTITLEVHQAYSTEYETIAACQLKFHEILEKSGRIFCTASLIGTKGDIPNFGTVEYWFRLRV
protein production: not failed

MMDSTASRQDLLTAASMRFQNLIQWSGAVLLCALPLGVTLAATGGEPAAVTQVDIAPCLAAAAGDDMDKAKSACADVIDNEKTAKGDLIKALVARGALYARHDQVDRAIADDSRALSLDPTLADVFNARGELWLKKGDKPKAVQDFGAALKLDPNHEKAKANHKAMARELERIGAQMAVAGKPSFNCARAARAVEKAICGNRELADLDREIYGSHLRVIREAQSPAEARKIQREQDDFIARRNSGFGRPGYDLKKAMQDRLQQINGVDGY
protein production: failed

SSISQQTIAETDGDSAGSDSFPVGRTHHRWYLCHFGQSLIHVIQVVIGYFIMLAVMSYNTWIFLGVVLGSAVGYYLAYPLLSTA
protein production: failed

MEETLATPDATRRSLSPSCSATVKSRAAGFERRTKRRLSETNASVREDREEAEEEEDEVKEKIEALQRIIPGGAALGVDALFEETAGYILSLQCQIKTIKVLTSFLQRIDQEDMKFGG
protein production: failed

MAQQWSLQRLAGRHPQDSYEDSTQSSIFTYTNSNSTRGPFEGPNYHIAPRWVYHLTSVWMIFVVIASVFTNGLVLAATMKFKKLRHPLNWILVNLAVADLAETVIASTISVVNQVYGYFVLGHPMCVLEGYTVSLCGITGLWSLAIISWERWMVVCKPFGNVRFDAKLAIVGIAFSWIWAAVWTAPPIFGWSRYWPHGLKTSCGPDVFSGSSYPGVQSYMIVLMVTCCITPLSIIVLCYLQVWLAIRAVAKQQKESESTQKAEKEVTRMVVVMVLAFCFCWGPYAFFACFAAANPGYPFHPLMAALPAFFAKSATIYNPVIYVFMNRQFRNCILQLFGKKVDDGSELSSASKTEVSSVSSVSPA
protein production: failed

MADIRVTHEAQVTVISFPAVFQRLRETEVEQIASTFLAAMQGAQPRKVLIDLEGVEFFGSSFIELLVRGWKRIKEDQQGVFALCSVSPYCVEVLQVTHIDEVWPRYSTKQEALLAMAS
protein production: not failed

MGMKYWSSKRRLYLTPVSFGFACSALLMLGTLSSYPDWLTCNPAPVVNQNDAVIYYFFRNIMMAVLFMSSIILYYFRQRIMHSWKAHVLTFTACILFTLTIIVLSWLYSSHSPWLSVNFIDDLSHTFTPLWQSIIGWLLMAVWFITLILLISLSKLRNIFWFSGAFFCSAYLFTLFQLLSTAGELDQTWYQARFFETLCTLFLILVLLVDVFILYRESNHKYVHSYQNSIRDPLTRLYNRSFFYDTLNQQLAKVNAQHPLSVLISDLDHFKRINDSYGHVAGDKVIQFAASVLESHSRVDDAAARIGGEEFALLLVNTGEKEAQAIAERIRLAVSAGESHLPERMTISMGVYTTYDNSVTAEACVQRADEAMYEAKNNGRNQVIVWHQQGG
protein production: failed
